No end group written: not given here.

T1: tetratricopeptide repeat (TPR) domain of S. cerevisiae PEX5 (Gal4pBD-TPR, plasmid pAH987) (S. cerevisiae)
T1 sequence (P35056 whole entry, looked up): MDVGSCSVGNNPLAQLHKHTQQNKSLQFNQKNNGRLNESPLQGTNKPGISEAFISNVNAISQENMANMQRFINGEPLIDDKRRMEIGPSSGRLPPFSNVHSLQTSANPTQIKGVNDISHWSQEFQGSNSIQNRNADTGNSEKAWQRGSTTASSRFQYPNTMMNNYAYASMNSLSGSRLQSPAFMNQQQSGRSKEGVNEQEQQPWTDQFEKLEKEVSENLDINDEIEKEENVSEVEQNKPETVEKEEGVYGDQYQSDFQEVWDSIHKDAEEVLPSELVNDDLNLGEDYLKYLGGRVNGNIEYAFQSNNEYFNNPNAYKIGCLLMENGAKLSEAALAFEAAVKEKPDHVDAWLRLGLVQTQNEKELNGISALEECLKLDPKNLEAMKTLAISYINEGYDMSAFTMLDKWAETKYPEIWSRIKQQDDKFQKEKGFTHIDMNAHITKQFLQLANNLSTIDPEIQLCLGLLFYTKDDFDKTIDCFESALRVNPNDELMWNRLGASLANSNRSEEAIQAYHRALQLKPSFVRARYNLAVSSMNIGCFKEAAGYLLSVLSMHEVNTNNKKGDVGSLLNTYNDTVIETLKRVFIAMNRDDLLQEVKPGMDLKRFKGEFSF

The target in the first assay is T1, tetratricopeptide repeat (TPR) domain of S. cerevisiae PEX5 (Gal4pBD-TPR, plasmid pAH987) (S. cerevisiae). Description: two-hybrid; yeast strain PCY3 co-transformed with Gal4pAD-16mer (pGAD.GH) and Gal4pBD-TPR of PEX5 (pAH987 yeast or hP87 human); quantitative beta-galactosidase activity, cells grown in SC-leu-trp at 30°C; lower limit of around 10 Miller Units per mg protein for a productive interaction.
Molecule “carboxy-terminal 16-mer of yeast mitochondrial ribosomal protein L2, or MRP7 (Gal4pAD-16mer) (peptide)” gave a beta-galactosidase activity (Units/mg protein) of 482. Still for that read-out and setting: with DINNTIDAARRVFAKL (not fully specified (N-terminus)) [carboxy-terminal 16-mer of Escherichia coli glutamate-1-semialdehyde 2,1-aminomutase (Gal4pAD-16mer)] the figure was 270; with EKGIKYKFEVYEKSKL [carboxy-terminal 16 residues of the DHFR-SKL construct (Gal4pAD-16mer)], 195. In the case of FAVDQRKLEDLLAAKL [carboxy-terminal 16-mer of E. coli transaldolase A (Gal4pAD-16mer)], the beta-galactosidase activity (Units/mg protein) is 164. Consider GMGRREGHPDVGPARL [carboxy-terminal 16-mer of Methanopyrus kandleri riboflavin synthase (Gal4pAD-16mer)], for which the beta-galactosidase activity (Units/mg protein) stood at 45. As for EEVIRKIAEGLNKAKF (not fully specified (N-terminus)) [carboxy-terminal 16-mer of Archaeoglobus fulgidus 2-nitropropane dioxygenase (Gal4pAD-16mer)], the beta-galactosidase activity (Units/mg protein) was 206.

The target of another assay is tetratricopeptide repeat (TPR) domain of human PEX5 (Gal4pBD-TPR, plasmid hP87) (Homo sapiens). The assay is described as above.
Take DINNTIDAARRVFAKL (not fully specified (N-terminus)) [carboxy-terminal 16-mer of Escherichia coli glutamate-1-semialdehyde 2,1-aminomutase (Gal4pAD-16mer)]: the beta-galactosidase activity (Units/mg protein) was 473.

Regarding HCKGKDLSKYLASCNL [carboxy-terminal 16-mer of dog lysozyme C from milk (Gal4pAD-16mer)], the beta-galactosidase activity (Units/mg protein) turned out to be 25.

Regarding FAVDQRKLEDLLAAKL [carboxy-terminal 16-mer of E. coli transaldolase A (Gal4pAD-16mer)], the beta-galactosidase activity (Units/mg protein) was determined as 566.

Consider GMGRREGHPDVGPARL [carboxy-terminal 16-mer of Methanopyrus kandleri riboflavin synthase (Gal4pAD-16mer)], for which the beta-galactosidase activity (Units/mg protein) turned out to be 358. Take FDRDQNRVGLAEAARL (not fully specified (N-terminus)) [carboxy-terminal 16-mer of the precursor of lysosomal bovine cathepsin D (Gal4pAD-16mer)]: the beta-galactosidase activity (Units/mg protein) is 310. Still for that read-out and setting: with RCKGTDVQAWIRGCRL [carboxy-terminal 16-mer of hen egg-white lysozyme (Gal4pAD-16mer)] the figure was 73.

As to LLMEKEDYHSLYQSHL [carboxy-terminal 16-mer of human tyrosinase (Gal4pAD-16mer)], the beta-galactosidase activity (Units/mg protein) was determined as 242. The same measure, in the same setting: with LLMEAEDYQATYQSNL [carboxy-terminal 16-mer of frog tyrosinase (Gal4pAD-16mer)] the figure was 91. The same measure, in the same setting: with PLKDKQLYANEGVSRL (not fully specified (N-terminus)) [carboxy-terminal 16-mer of Drosophila sevenless protein (Gal4pAD-16mer)] the figure was 29.

Values taken from paper PMC545800.
